Test results published in patent US20060147463A1.

What was measured:
alcohol dehydrogenase = test: cell-based or functional assay
[1] = target: carboxy-terminal truncated Hsp20 (Babesia bovis) (Babesia bovis); test: size exclusion FPLC (Superose 6) (self-association)

| Substance | molar ratio of greatest reduction in light scattering at time infinity (molar ratio Hsp20 to ADH) (alcohol dehydrogenase) | reduction in light scattering of ADH at 58° C., 60 minutes, molar ratio 2:1 Hsp20:ADH (alcohol dehydrogenase) [fold] | percent of protein as dimer [1] [%] |
| --- | --- | --- | --- |
| His-tagged Hsp20 from Babesia bovis (full length) | 2 | 2.3 | – |
| carboxy-terminal truncated Hsp20 (Babesia bovis) | – | – | 42 |
